From US20090004644 (Conceptual MindWorks, Inc, published 2009) come the findings set out here.

For data set [1], the target named is Botulinum neurotoxin type B light chain (UniProt B1INP5 B1INP5:2-441).
Data set [2] has as its target Botulinum neurotoxin type A heavy chain (UniProt P0DPI1 P0DPI1:449-1296).
The target in data set [3] is Botulinum neurotoxin type B heavy chain (UniProt B1INP5 B1INP5:442-1291).
The target in data set [4] is Botulinum neurotoxin type A light chain (UniProt P0DPI1 P0DPI1:2-448).
Sequence of Botulinum neurotoxin type A light chain (P0DPI1 2-448, one chain of several): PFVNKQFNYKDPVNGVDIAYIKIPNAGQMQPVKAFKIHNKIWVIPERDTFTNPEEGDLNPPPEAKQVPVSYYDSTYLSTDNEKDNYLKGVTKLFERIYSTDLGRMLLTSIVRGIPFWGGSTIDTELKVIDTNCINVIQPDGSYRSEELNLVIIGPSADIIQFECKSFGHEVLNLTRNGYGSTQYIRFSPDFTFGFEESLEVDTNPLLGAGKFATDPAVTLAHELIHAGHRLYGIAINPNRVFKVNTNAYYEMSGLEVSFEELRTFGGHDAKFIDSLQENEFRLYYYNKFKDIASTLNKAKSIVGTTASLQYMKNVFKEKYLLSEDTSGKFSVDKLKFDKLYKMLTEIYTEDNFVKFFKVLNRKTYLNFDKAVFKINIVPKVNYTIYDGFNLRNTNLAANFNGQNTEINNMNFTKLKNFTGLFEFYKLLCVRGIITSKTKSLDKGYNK

Sequence of Botulinum neurotoxin type B heavy chain (B1INP5 442-1291, one chain of several): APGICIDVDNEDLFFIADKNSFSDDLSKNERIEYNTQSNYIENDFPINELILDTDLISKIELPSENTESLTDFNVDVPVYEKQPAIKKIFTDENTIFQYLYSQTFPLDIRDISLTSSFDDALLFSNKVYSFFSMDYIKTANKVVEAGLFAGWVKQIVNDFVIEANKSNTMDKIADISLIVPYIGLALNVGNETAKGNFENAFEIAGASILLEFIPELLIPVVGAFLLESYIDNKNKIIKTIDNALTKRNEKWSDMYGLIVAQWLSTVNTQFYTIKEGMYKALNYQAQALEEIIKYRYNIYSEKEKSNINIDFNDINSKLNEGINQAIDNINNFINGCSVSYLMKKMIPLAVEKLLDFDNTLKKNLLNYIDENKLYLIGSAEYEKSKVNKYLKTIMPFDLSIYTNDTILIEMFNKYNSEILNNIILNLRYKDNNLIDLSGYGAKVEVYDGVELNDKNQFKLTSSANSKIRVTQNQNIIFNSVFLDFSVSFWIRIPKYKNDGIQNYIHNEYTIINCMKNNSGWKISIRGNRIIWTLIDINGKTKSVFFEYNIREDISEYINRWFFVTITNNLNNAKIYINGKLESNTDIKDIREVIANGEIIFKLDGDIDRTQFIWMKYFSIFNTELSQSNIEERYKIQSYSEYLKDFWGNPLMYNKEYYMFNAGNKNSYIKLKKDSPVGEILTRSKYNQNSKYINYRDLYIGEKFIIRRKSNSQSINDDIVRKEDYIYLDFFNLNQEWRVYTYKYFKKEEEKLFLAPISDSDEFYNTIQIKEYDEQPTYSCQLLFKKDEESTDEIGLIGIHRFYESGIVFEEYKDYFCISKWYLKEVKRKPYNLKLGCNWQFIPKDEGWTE
Sequence of Botulinum neurotoxin type A heavy chain (P0DPI1 449-1296, one chain of several): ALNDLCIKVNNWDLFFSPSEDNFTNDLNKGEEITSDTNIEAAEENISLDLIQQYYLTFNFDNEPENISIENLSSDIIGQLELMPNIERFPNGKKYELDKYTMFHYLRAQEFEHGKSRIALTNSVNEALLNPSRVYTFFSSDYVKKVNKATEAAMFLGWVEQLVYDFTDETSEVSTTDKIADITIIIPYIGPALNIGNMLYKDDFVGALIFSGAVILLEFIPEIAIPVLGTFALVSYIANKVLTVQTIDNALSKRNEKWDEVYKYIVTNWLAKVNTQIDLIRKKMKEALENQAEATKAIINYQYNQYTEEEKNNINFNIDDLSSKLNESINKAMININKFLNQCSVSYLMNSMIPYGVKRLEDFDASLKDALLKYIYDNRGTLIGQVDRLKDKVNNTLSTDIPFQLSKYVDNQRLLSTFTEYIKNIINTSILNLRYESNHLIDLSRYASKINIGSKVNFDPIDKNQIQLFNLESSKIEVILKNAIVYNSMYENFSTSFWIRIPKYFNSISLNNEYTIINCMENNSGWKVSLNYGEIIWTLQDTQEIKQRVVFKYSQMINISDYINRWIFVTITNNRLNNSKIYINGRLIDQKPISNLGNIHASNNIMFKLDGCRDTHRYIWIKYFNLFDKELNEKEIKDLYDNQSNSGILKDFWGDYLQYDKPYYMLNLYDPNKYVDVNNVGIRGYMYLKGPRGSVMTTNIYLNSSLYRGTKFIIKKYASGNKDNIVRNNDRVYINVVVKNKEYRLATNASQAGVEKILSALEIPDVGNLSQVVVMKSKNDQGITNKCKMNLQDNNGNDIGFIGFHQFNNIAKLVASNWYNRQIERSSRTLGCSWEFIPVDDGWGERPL
Sequence of Botulinum neurotoxin type B light chain (B1INP5 2-441, one chain of several): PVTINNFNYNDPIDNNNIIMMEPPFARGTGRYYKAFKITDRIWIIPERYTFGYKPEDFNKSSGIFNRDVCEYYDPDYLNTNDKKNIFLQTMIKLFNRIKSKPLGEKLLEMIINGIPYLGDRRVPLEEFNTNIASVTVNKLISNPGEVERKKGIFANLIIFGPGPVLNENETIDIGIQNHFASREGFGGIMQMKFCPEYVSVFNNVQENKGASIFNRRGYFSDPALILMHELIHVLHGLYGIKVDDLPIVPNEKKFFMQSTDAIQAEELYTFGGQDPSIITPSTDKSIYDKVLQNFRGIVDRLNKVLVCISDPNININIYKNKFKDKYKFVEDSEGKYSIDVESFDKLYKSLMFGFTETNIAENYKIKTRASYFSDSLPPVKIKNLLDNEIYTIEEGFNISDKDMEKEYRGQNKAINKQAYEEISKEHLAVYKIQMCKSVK

B1: LCB 2(+) (DCE-2) (ssDNA)
DNA: AGTCTAGAGGGCCCCAGAATTATCCACTAGCGGGAAGTAGTACATCTCACCCAGCAAAGGATGCAGGGGT
For B1, the binding result in data set [1] is given as “binds”.

B2: 3(+) SELEX LCA aptamer (DCE-3) (ssDNA)
DNA: CATCCGTCACACCTGCTCTGGGGATGTGTGGTGTTGGCTCCCGTATCAAGGGCGAATTCT
Turning to B2, the binding result in data set [1], in data set [2], in data set [3] and in data set [4] was “binds” each time.

B3: 4(+) SELEX holotoxin aptamer (DCE-4) (ssDNA)
DNA: CATCCGTCACACCTGCTCTGCTATCACATGCCTGCTGAAGTGGTGTTGGCTCCCGTATCA
As to B3, the binding result in data set [2] and in data set [3] was “binds” each time.

B4: LCA 1(+) (DCE-1) (ssDNA)
DNA: AGTCTAGAGGGCCCCAGAATACACCCGACAACTAGATACCCATCAAAAGTCCAGCAAAGGATGCAGGGGT
Consider B4, for which the binding result in data set [2] was “no binding”; in data set [3], “no binding”; in data set [4], “binds”.
